{
  "source": "paper PMC7447803",
  "about": "“DEPS-1 is required for piRNA-dependent silencing and PIWI condensate organisation in Caenorhabditis elegans” (Nature Communications, 2020)",
  "molecules": {"B1": {"name": "MBP-tagged full-length DEPS-1 (natural protein, C. elegans, UniProt Q9N303 1-619, looked up)", "chain": "MSERQSKYFDYQGIVISSTGQDNQDSETDLVYLIQAHGKAAPKNIMYGVSKCAFVPTNLERNFDNIEEAKNLERRSKIPLKFGEVILWNESDCDHDKRIILHIKREKPIYEASSSRNGLILKVGGVIQPTSTTSFWTPLCTVTMPETEATRAEPDVWLYAWIRFETTMKSGLDPFNMTATFESFDSCDPSDQARVCEAPWNAGSPDSKFGVWRPDPKPADSDDEIDIEPREGWHLPEDKWAEVIKMQLGLYVGERLLICKELSQFDFIIPLQKPFSRGTDKTLIYPAVGEYFHFSAIWSMQHNGFLIYELQPVPLLRQHVTSVNGNLLTRVVPASIRGLFVDKEGTLGLIDDPHHLLSFFEFHPAGYEFLKAMAEVRAVRTSENKSVRYRIVRTSGMSIFENWLRDTQFVVGPVKGIRINEDTVICAKHPNVYFKIPNNLKEGIPIGGGVQFVGKRQAGVDSEIMITECSPCPAFTCKNYSVSGDTRLFQVYLKPNCDHEQLAESDSMGFVDFRELETPCRGKFLAWVRESITVNDCRRAATIMEVCSTAICPPLIAMSANSSRATSARTTPAGSSIGSRSSIQSRASAATSVSSNRFVGPSSRRTPSGTPQSSTSSRV", "modifications": "atto-488 NHS ester label", "notes": "DEPS-1 (Defective P granules and Sterile-1), C. elegans P granule protein, full length; Cloned into pMAL-C5X; Labelled partner (10 nM) in the MST with MBP-PRG-1; also called MBP-DEPS-1; Defective P granules and Sterile-1; source: E. coli BL21 (DE3), purified (RNaseA-treated lysate, amylose resin, size-exclusion chromatography)"}},
  "test_in_all_cases": "MST; one partner labelled with atto-488 NHS ester at a constant amount, unlabelled partner serially diluted 1:2; 30 mM HEPES pH 7.5, 100 mM K-Ac, 2 mM Mg-Ac, 14 mM BME, 0.01% NP-40; apparent Kd by the law of mass action",
  "key": {"[1]": {"biological_target": "N-terminal fragment of DEPS-1 (DEPS-1^frag1) (C. elegans) (UniProt Q9N303)"}, "[2]": {"biological_target": "DEPS-1 PBS motif peptide (C. elegans)"}, "[3]": {"biological_target": "MBP-tagged full-length DEPS-1 (C. elegans) (UniProt Q9N303)"}, "[4]": {"biological_target": "T1, MBP-tagged full-length PRG-1 (C. elegans, UniProt P90786 1-824, Atto-594 label (in the cluster imaging only))", "T1 construct": "PRG-1, the PIWI protein of C. elegans, full length; Cloned into pMAL-C5X; Unlabelled in the MST titration; also called MBP-PRG-1; MBP-PRG; source: E. coli BL21 (DE3), purified (RNaseA-treated lysate, amylose resin, size-exclusion chromatography)", "T1 sequence (looked up)": "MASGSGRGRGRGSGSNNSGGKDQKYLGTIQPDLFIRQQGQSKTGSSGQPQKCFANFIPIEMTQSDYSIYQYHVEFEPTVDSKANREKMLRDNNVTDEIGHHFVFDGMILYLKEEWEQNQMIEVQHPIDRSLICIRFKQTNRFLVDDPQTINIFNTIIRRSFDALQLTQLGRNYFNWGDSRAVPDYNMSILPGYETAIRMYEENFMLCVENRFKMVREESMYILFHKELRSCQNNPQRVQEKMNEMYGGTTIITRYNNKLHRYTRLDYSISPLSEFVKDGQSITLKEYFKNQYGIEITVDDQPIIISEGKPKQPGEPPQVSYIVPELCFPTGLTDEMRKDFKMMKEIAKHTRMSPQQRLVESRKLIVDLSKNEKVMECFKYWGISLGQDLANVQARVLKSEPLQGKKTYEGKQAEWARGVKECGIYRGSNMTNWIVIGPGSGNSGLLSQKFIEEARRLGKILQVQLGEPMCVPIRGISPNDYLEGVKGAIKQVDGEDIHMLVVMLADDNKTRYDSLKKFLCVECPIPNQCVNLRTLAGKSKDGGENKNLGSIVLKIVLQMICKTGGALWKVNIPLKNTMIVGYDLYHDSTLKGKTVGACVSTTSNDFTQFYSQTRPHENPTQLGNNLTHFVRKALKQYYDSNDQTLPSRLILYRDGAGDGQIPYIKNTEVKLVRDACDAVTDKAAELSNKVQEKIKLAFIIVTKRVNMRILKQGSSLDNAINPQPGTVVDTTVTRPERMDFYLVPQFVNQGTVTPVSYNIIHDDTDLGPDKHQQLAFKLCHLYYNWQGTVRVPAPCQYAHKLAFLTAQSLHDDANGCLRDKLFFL", "conditions": "both partners purified"}},
  "data": [
    {"molecule": "MBP-tagged PRG-1 PIWI domain (from UniProt P90786 1-824) (domain or fragment)", "values": [
      {"measurement": "Kd", "setting": "[1]", "result": 151, "unit": "nM"},
      {"measurement": "Kd", "setting": "[2]", "result": 1900, "unit": "nM"},
      {"measurement": "Kd", "setting": "[3]", "result": 349, "unit": "nM"}
    ]},
    {"molecule": "B1", "values": [
      {"measurement": "Kd", "setting": "[4]", "result": "855 ± 133", "unit": "nM"}
    ]}
  ]
}
